According to IntAct's records for PubMed 19797078:

B1: Tyrosine-protein phosphatase YVH1 (Saccharomyces cerevisiae), Q02256 (parent)
chain: MAGNANSVDEEVTRILGGIYLGGIRPIIDHRPLGAEFNITHILSVIKFQVIPEYLIRKGYTLKNIPIDDDDVTDVLQYFDETNRFIDQCLFPNEVEYSPRLVDFKKKPQRGAVFAHCQAGLSRSVTFIVAYLMYRYGLSLSMAMHAVKRKKPSVEPNENFMEQLHLFEKMGGDFVDFDNPAYKQWKLKQSIKLDPSGSELVSNSGMFKDSESSQDLDKLTEAEKSKVTAVRCKKCRTKLALSTSFIAHDPPSKESSEGHFIKRAANSHRIIDIQESQANCSHFFIEPLKWMQPELQGKQELEGKFSCPGCSSKVGGYNWKGSRCSCGKWVIPAIHLQTSKVDQFPLQSTALPNMVNFESEKVNR
partner: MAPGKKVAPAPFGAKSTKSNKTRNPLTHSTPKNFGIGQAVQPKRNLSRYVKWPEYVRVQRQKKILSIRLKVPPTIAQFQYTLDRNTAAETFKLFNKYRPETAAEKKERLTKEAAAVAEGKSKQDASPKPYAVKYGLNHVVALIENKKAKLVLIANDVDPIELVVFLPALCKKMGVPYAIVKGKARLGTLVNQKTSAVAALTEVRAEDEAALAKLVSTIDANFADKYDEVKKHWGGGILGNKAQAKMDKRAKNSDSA
B2: Ribosome assembly factor MRT4 (Saccharomyces cerevisiae), P33201 (parent)
chain: MPRSKRSKLVTLAQTDKKGRENKERIFDEVREALDTYRYVWVLHLDDVRTPVLQEIRTSWAGSKLIMGKRKVLQKALGEKREEEYKENLYQLSKLCSGVTGLLFTDEDVNTVKEYFKSYVRSDYSRPNTKAPLTFTIPEGIVYSRGGQIPAEEDVPMIHSLEPTMRNKFEIPTKIKAGKITIDSPYLVCTEGEKLDVRQALILKQFGIAASEFKVKVSAYYDNDSSTVESTNINME
partner: B1 partner

Variants of: B1
Settings: with rl8a_yeast RPL8A

| effect of a mutation on the interaction | Variant |
| --- | --- |
| decreasing interaction | C117S |

Variants of: B2
Settings: with rl8a_yeast RPL8A

| effect of a mutation on the interaction | Variant |
| --- | --- |
| decreasing interaction | G68D |
